{"source": "patent US20260053963A1", "biological_target": "CD33 (human) (UniProt P20138)", "sequence (P20138 18-364)": "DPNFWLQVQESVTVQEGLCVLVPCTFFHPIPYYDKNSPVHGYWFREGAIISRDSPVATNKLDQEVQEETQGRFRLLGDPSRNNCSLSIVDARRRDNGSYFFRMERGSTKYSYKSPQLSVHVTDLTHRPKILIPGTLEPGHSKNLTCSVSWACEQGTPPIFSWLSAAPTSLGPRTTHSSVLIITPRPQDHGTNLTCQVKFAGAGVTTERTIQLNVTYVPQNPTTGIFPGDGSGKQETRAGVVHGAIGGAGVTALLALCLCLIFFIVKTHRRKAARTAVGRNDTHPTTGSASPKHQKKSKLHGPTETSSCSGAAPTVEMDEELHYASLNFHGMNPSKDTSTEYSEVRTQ", "experiment": "cell-based or functional assay"}
{"substance": "^225Ac-labeled lintuzumab (^225Ac-labeled conjugate of p-SCN-Bn-DOTA and lintuzumab) (antibody; the values are: LD50)", "values": [{"measurement": "cytotoxicity on HL60 (leukemia cells): dose at which 50% of the cells were killed (LD50)", "value": 8, "unit": "pCi/mL"}]}
